This data set concerns the molecule itself. Kind of data set: non-reducing gel and blot of the purified protein; ΔIRE1-V5/His purified on a Ni column, non-reducing condition (without β-mercaptoethanol).

These results are taken from paper PMC3799859, “Sigma-1 Receptor Chaperone at the ER-Mitochondrion Interface Mediates the Mitochondrion-ER-Nucleus Signaling for Cellular Survival” (PLoS ONE, 2013).

One may read the stoichiometry N as a count of units in the complex or per binding partner.

B1: ΔIRE1-V5/His (ER lumenal domain of human IRE1) (domain or fragment, UniProt O75460 19-443, looked up)
chain: IFGSTSTVTLPETLLFVSTLDGSLHAVSKRTGSIKWTLKEDPVLQVPTHVEEPAFLPDPNDGSLYTLGSKNNEGLTKLPFTIPELVQASPCRSSDGILYMGKKQDIWYVIDLLTGEKQQTLSSAFADSLCPSTSLLYLGRTEYTITMYDTKTRELRWNATYFDYAASLPEDDVDYKMSHFVSNGDGLVVTVDSESGDVLWIQNYASPVVAFYVWQREGLRKVMHINVAVETLRYLTFMSGEVGRITKWKYPFPKETEAKSKLTPTLYVGKYSTSLYASPSMVHEGVAVVPRGSTLPLLEGPQTDGVTIGDKGECVITPSTDVKFDPGLKSKNKLNYLRNYWLLIGHHETPLSASTKMLERFPNNLPKHRENVIPADSEKKSFEEVINLVDQTSENAPTTVSRDVEEKPAHAPARPEAPVDSMLKD
notes: human IRE1, lumenal domain (ΔIRE1), lacking the cytoplasmic domain; Most of the purified protein is a dimer under non-reducing conditions; a portion was pretreated with β-mercaptoethanol to keep it monomeric; source: CHO, transfected (pcDNA3.1); in lysate, or purified from the cell extract on Ni-NTA agarose; not shown: V5, C-terminal, kept; His, C-terminal, kept
For the protein B1, the “stoichiometry N” value came out at 2.
